This note sets out measurements from patent CN107236025A, “与cd56分子特异性结合的多肽及其应用” (GUANGZHOU YIDAI PHARMACEUTICAL TECHNOLOGY Co Ltd, priority 2017, dated 2017).

One data set deals with U2 OS细胞. The experiment in a line: Cytotoxicity test (CCK8) on U2 OS cells. The data set is classed as cell-based. Conditions: 0.1-100 μg/ml peptide, 72 h; versus medium without peptide; Fig. 5.
Data set [1] is described as follows: In vivo metabolism and distribution in mouse by fluorescence imaging. Further details: species or system 小鼠.
Setting [2] is: female mouse, tail vein, 400 ul of 1 mg/ml, Fig. 7.

Regarding “SSVLTKWYLVCWSLGESISNERRKNFHLVGHWGCLRKLTFVVE [7号多肽]”, the “Toxicity to U2 OS cells (cell viability, CCK8)” value in the data set on U2 OS细胞 is on record as “没有毒性作用”.

B1: SSVYCKQTNKKKRKERKRDTGMKGDIIGTGVNDLAPLRGPIKASTMVAVAQDMAGTGADFLFL (peptide)
chain: SSVYCKQTNKKKRKERKRDTGMKGDIIGTGVNDLAPLRGPIKASTMVAVAQDMAGTGADFLFL
In the case of B1, in data set [1] (setting [2]), the “Distribution of peptide fluorescence after 1 h” value is on record as “逐渐富集到小鼠肝、肾和肠” and the “Distribution of peptide fluorescence after 3.5 h” value is recorded as “只留存于肝脏和肠腔”. Also, the Route of metabolism result in data set [1] (female mouse, tail vein, concluded from fluorescence imaging) is “主要经过肝脏代谢”. In addition, in data set [1] (mouse, after 3.5 h of imaging, Fig. 8), the “Peptide residue in liver, spleen, lung and kidney (frozen sections, confocal)” value is “各个脏器均有少量的多肽残留”. Besides, in the data set with U2 OS细胞, the “Toxicity to U2 OS cells (cell viability, CCK8)” value is listed as “没有毒性作用”.
